Reference: the supplement of paper PMC9170038

Test system: MS2 coat protein
Assay: apparent KD of MS2 coat protein; designed switch direction (-1 OFF switch, 1 ON switch): -1; higher = weaker reporter binding
How it was run: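 RNA switches sharing common flanks were transcribed by stalled E. coli RNA polymerase on Illumina chips. A doubling series of SNAP-549-labelled MS2 coat protein, from 0.7 or 1.5 nM to 3 µM, was applied in Tris-HCl pH 7.5 buffer with KCl, MgCl2, BSA, DTT, tRNA and Tween-20. Each step lasted 0.8–1.5 h at the bottom of the series and 10–20 min at the top. Normalised cluster fluorescence was curve-fitted, giving apparent KD as the per-design median over clusters.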

[1] = Eterna round: R95, input ligand: microRNA oligo, concentration not stated
[2] = input ligand: microRNA oligo, concentration not stated
[3] = Eterna round: R95, input ligand: FMN 200 uM
[4] = Eterna round: R95, input ligand: none

Sequence	apparent KD of MS2 coat protein (input ligand: FMN 200 uM)	apparent KD of MS2 coat protein (input ligand: none)	apparent KD of MS2 coat protein [1]	also measured
UAUUAGCAAGCGAGUGGGUACAUGAGGAUCACCCAUGUGCUCGUCUUAUAAGGUACUGUGACGAAAGUCACGGUACC [Eli 91 v33] (Eterna round: R97, puzzle: Sensor, turn-off variant 1)	16.1 nM	13.4 nM		
AGUAACAGAGGAUAUACUAUUUUAUGUGUUUGUUGUUUUGAACAUGAGGAUCACCCAUGUAGAAGGCUGAAUAA [JMF 96] (puzzle: Exclusion 2)			24.1 nM	
CCAUCGUGUGUGAGGAUAUGCUGGUCCUUGGAUCAGCAGAAGGCACAUGAGGAUCACCCAUGUGAAAACGAUGG [Mat - Exclusion 4 - JL Mod - D88] (puzzle: Brourd's mod of Exclusion 4)			16.8 nM	
GCACGAAGUGUAGGAUAUCUGUGCGAUUAGCUCAGAGAAGGACACAUGAGGAUCACCCAUGUGUUCCGCGGAAGCAAAACGUGC [Eli exng1 - 056] (Eterna round: R96, puzzle: Exclusion NG 1)	11.2 nM	11.4 nM		apparent KD of MS2 coat protein [2]: 9.08 nM
CCCAGUUAUUGAGGAUAUUGUACAUGAGGAUCACCCAUGUAAUAAAUGAGGAUUUCGGGUGUCUACAAGAAGGCAAGGAUAGGC [Ostracism 20 - Jieux - Exclusion NG 2] (Eterna round: R96, puzzle: Exclusion NG 2)	54.6 nM	46.8 nM		apparent KD of MS2 coat protein [2]: 46.1 nM
AUAUCACAUGAGGAUCACCCAUGUCAGGAUAUGAUACUAUGUACUUCGGUACAUAGUAUCAGAAGGGAUAUGAA [Ex1-3: 66] (puzzle: Exclusion 1)			45.4 nM	
GUCAGCUCGUGAGGAUAUACAUGAUAGAUCGAUUAAUUAAUUAAUUUAACAUGAGGAUCACCCAUGUAGAAGGCACGAGCUGAU [ENG2/1-A2] (Eterna round: R96, puzzle: Exclusion NG 2)				apparent KD of MS2 coat protein [2]: 35.8 nM
CUUAGUAUCUAGGAUAUCUAGUACAUAGUAUCUAGAGAAGGAGAUACAUGAGGAUCACCCAUGUUCUGUGAUCU [Exclusion 6 - 2:d] (puzzle: Exclusion 6)			217 nM	
AGUACUAUCACGAAAGUGUUAGUACAAUAAGCUUGUGAAACAUGAGGAUCACCCAUGUCCUCAUAAGCUCGUCUUAU [salish99_TOv2_r3_019] (puzzle: Sensor v3, turn-off variant 2)			868 nM	apparent KD of MS2 coat protein [3]: 16.9 nM; apparent KD of MS2 coat protein [4]: 15.7 nM
GUGUAGAUAGGAUAUGCUGGAAUCUAGCGAAGCUAGGUUCCACAUGAGGAUCACCCAUGUAGAAGGGUCUACAC [Dot plot directed A v11] (puzzle: Exclusion 2)			127 nM	
UUUAAUUUUUUUUUUUUACAAGCUUUUUGCUCGUCUUAUACAUGAGGAUCACCCAUGUAGGUGAAAGGUAAAUUAUC [JMF 65] (puzzle: Sensor v3, turn-off variant 2)			117 nM	apparent KD of MS2 coat protein [3]: 32 nM; apparent KD of MS2 coat protein [4]: 30.9 nM
UAUUAGCAAGCGAGAUCCCACAUGAGGAUCACCCAUGUGCUCGUCGCAUCCAGAAUUACUGGGUGCGCUCGUCUUAU [Winner reversed engineered 15] (Eterna round: R97, puzzle: Sensor, turn-off variant 1)	23.8 nM	23.7 nM		
AGUACUACCACGAAAGUGUUAGUACAAUAAGCUUGUGAAACAUGAGGAUCACCCAUGUCCUCAUAAGCUCGUCUUAU [salish99_TOv2_r3_021] (puzzle: Sensor v3, turn-off variant 2)			524 nM	apparent KD of MS2 coat protein [3]: 16.7 nM; apparent KD of MS2 coat protein [4]: 16.5 nM
UCAAGUUUAGAGGAUAUAUAAUAUUUAUUAACUAUAGAAGGCUAUACAUGAGGAUCACCCAUGUAUAUUGGGAU [JR_Ex6_Sub066] (Eterna round: R97, puzzle: Exclusion 6)	40.6 nM	26.1 nM		
CAUUAUUAUCGAGGAUAUCCUAUUGUAAUUCUGGGAGAAGGCGGACUCAACAUGAGGAUCACCCAUGUAAGACGGGUACUAGAG [Ex NG1 #23] (Eterna round: R96, puzzle: Exclusion NG 1)	85.1 nM	74.8 nM		apparent KD of MS2 coat protein [2]: 49.3 nM
AAUAACAGAGGAUAUACUAUUUUAUGUGUUUGUUGUUUUGAACAUGAGGAUCACCCAUGUAGAAGGCUGAAUGA [JMF 69] (puzzle: Exclusion 2)			25.3 nM	
AGUACUAACACGGCAGUGUUAGUACAAUAAGCUUGUGAAACAUGAGGAUCACCCAUGUCCUCAUAAGCUCGUCUUAU [salish99_TOv2_r3_065] (puzzle: Sensor v3, turn-off variant 2)			423 nM	apparent KD of MS2 coat protein [3]: 18.6 nM; apparent KD of MS2 coat protein [4]: 15.4 nM
AAAGUGUCAGGAUAUUGUUAGUUUAGUUGUUUGUAUUAGUUCGAGAAGGGACAUGAGGAUCACCCAUGUUGUAA [Ex4 #64] (Eterna round: R97, puzzle: Exclusion 4)	24.5 nM	32.2 nM		
